# Results from paper PMC7360481.
# B1: RNA/DNA hybrid (DNA:RNA)
# RNA: CCUACUACCUGUGCCUUUAAGUACCUUUUCUGUCUUCUA
# DNA: TAGAAGACAGAAAAGGTACTCTAAAGGCACAGGTAGTAGG
# Target: Sox2 (Mus musculus, UniProt P48432 1-319)
# Test: EMSA
# Sox2, sequence (P48432 whole entry): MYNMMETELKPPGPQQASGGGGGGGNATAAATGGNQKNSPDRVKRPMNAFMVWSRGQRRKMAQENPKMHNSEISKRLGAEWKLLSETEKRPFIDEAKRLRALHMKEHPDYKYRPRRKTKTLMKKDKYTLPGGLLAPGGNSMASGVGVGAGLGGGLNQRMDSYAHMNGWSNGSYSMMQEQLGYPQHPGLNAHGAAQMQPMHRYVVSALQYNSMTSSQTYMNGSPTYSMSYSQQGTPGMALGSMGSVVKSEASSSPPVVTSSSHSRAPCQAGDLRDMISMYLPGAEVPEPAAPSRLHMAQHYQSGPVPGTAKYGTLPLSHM
binder,measurement,value
B1,binding result,no binding
